{"source": "paper PMC2193914", "molecular_target": "rat KLRE1-HA (short splice variant), in transiently transfected 293T cells (rat) (UniProt Q80ZC8)", "experiment": "SDS-PAGE under nonreducing and reducing conditions with Western blot", "data": [{"substance": "rat KLRE1-HA (short splice variant), in transiently transfected 293T cells (from UniProt Q80ZC8 1-226) (receptor)", "values": [{"measurement": "stoichiometry N", "result": 2}]}]}
